The target in this test is not2_yeast CDC36 (UniProt P06100).
Chain of UniProt P06100 (P06100 whole entry): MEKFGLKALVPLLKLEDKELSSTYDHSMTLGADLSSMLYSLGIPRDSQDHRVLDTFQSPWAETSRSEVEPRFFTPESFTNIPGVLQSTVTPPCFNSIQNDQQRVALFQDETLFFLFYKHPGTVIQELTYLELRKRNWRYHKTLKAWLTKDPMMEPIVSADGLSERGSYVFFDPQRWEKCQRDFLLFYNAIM

As for “General negative regulator of transcription subunit 1 (Saccharomyces cerevisiae), P25655 F1751E”, the “effect of a mutation on the interaction” value is on record as “disrupting interaction strength”.
Under “General negative regulator of transcription subunit 1 (Saccharomyces cerevisiae), P25655 R1811E;L1814E” stands “disrupting interaction strength”.

The record behind these values is IntAct's records for PubMed 24121231.
